Experimental data reported in patent WO2014027697A1 (dated 2014).
Numbering of substitutions follows the chain as printed. *: point of attachment. Biotin = O=C1N[C@H]2[C@H](CS[C@H]2CCCCC(=O)*)N1; Ahx = NCCCCCC(=O)O

B1: anti-PspA mouse monoclonal antibody 140G1 (antibody, V domains shown)
VH: QVQLKESGPGLVAPSQSLSITCTVSGFSLIGYGVNWVRQPPGKGLEWLGMIWGDGSTDYNLVLKSRLSINKDNSKSQVFLQMNSLQTDDTARYYCARGPQWGFAYWGQGTLVSVSA
VL: DIVMSQSPSSLAVSAGEKVTMSCKSSQSLLNSRTRKNYLAWYQQKPGQSPKLLIYWASTRESGVPDRFTGSGSGTDFTLTISSVQAEDLAVYYCKQSYNLPTFGGGTKLEIK
notes: Hybridoma antibody, mouse IgG1, kappa, raised against PspA-D39; also called clone 140G1
B2: anti-PspA mouse monoclonal antibody 140G11 (antibody, V domains shown)
VH: B1 VH with I30T, L61S, V62A, N70S, Q81K, S113T
VL: B1 VL
notes: Hybridoma antibody, mouse IgG2a, kappa, raised against PspA-D39; also called clone 140G11
B3: anti-PspA mouse monoclonal antibody 139G3 (antibody, V domains shown)
VH: EVQLQQSGTEVVKPGASVKLSCTASGFNIKDTYIHWVKKRPEQGLEWIGRIDPANGNTRYDPKFQGKATMTADTSSNTAYLQVSSLTSEDTAVYYCSRSDKFVWFAYWGQGTLVTVSA
VL: DIVLTQSPVSLTVYMGQRATISCRASQSVSTSSYNYIHWFQQKPGQPPKLLIKYASTLESGVPARFSGGGSGTDFTLNIHPVEEEDAATYSCQHSWEIPYTFGGGTKLEIK
notes: Hybridoma antibody, mouse IgG2a, kappa, raised against PspA-TIGR4; also called clone 139G3
B4: anti-PspA mouse monoclonal antibody 140H1 (antibody, V domains shown)
VH: QIQLVQSGPELKKPGETVRISCKASGYTFTTAGMQWVQKVPGKGLQWIGWINTHSGVPTYAEDFKGRIAFSLETSASAAYLQISNLKDEDTATYFCGRSGTGYAMDYWGQGTSVIVSS
VL: DTVMSQSPSSLVVSVGEKVSMSCKSSQNLLYTNNQKNYLAWYQQKPGQSPKLLIYWASTRESGVPDRFTGSGSGTDFTLTITSVKAEDLAVYYCQQYYTYPYTFGGGTKLEIK
notes: Hybridoma antibody, mouse IgG1, kappa, raised against PspA-D39; also called clone 140H1

Columns and labels:
[1] = molecular target: T1, synthetic peptide BAA658-PR1.2 (Streptococcus pneumoniae strain BAA-658, SMILES …); test: ELISA, biotinylated peptide on NeutrAvidin plates
T1 peptide: {Biotin-Ahx}-PEKPAEETPAPAPKPEQPA-NH2

[2] = molecular target: T2, synthetic peptide BAA658-PR4 (Streptococcus pneumoniae strain BAA-658, SMILES …); test: ELISA, biotinylated peptide on NeutrAvidin plates
T2 peptide: {Biotin-Ahx}-KPAPAPQPAPAPKPE-NH2

[3] = molecular target: T3, synthetic peptide BAA658-PR3 (Streptococcus pneumoniae strain BAA-658, SMILES …); test: ELISA, biotinylated peptide on NeutrAvidin plates
T3 peptide: {Biotin-Ahx}-EQPAEQPKPAPAPQP-NH2

[4] = molecular target: T4, synthetic peptide BAA658-PR1 (Streptococcus pneumoniae strain BAA-658, SMILES …); test: ELISA, biotinylated peptide on NeutrAvidin plates
T4 peptide: {Biotin-Ahx}-PEKPAEETPAPAPKPEQ-NH2

[5] = molecular target: T5, synthetic peptide BAA658-PR2 (Streptococcus pneumoniae strain BAA-658, SMILES …); test: ELISA, biotinylated peptide on NeutrAvidin plates
T5 peptide: {Biotin-Ahx}-TPAPAPKPEQPAEQPK-NH2

[6] = molecular target: T6, MBP-PspA-BAA658-FL (Streptococcus pneumoniae strain BAA-658); test: ELISA on plates coated with E. coli lysate holding the MBP-tagged protein, antibody at 1 μg/mL
T6 construct: Tested as cleared E. coli lysate coated on ELISA plates; also called full BAA-658 peptide; strain BAA-658 FL

[7] = molecular target: T7, MBP-PspA-BAA658-S4 (Streptococcus pneumoniae strain BAA-658); test: ELISA on plates coated with E. coli lysate holding the MBP-tagged fragment, antibody at 1 μg/mL
T7 construct: Tested as cleared E. coli lysate coated on ELISA plates; also called MBP-BAA658(S4)

[8] = molecular target: T8, MBP-PspA-BAA658-S1 (Streptococcus pneumoniae strain BAA-658); test: ELISA on plates coated with E. coli lysate holding the MBP-tagged fragment
T8 construct: Tested as cleared E. coli lysate coated on ELISA plates; also called MBP-BAA658(S1)

[9] = molecular target: T9, MBP-PspA-BAA658-S2 (Streptococcus pneumoniae strain BAA-658); test: as above
T9 construct: Tested as cleared E. coli lysate coated on ELISA plates; also called MBP-BAA658(S2)

[10] = molecular target: T10, MBP-PspA-BAA658-S3 (Streptococcus pneumoniae strain BAA-658); test: as above
T10 construct: Tested as cleared E. coli lysate coated on ELISA plates; also called MBP-BAA658(S3)

[11] = molecular target: T10, MBP-PspA-BAA658-S3; test: ELISA on plates coated with E. coli lysate holding the MBP-tagged fragment, antibody at 1 μg/mL
[12] = molecular target: T1, synthetic peptide BAA658-PR1.2; test: ELISA, biotinylated peptide on NeutrAvidin plates, antibody at 1 μg/mL
[13] = molecular target: T5, synthetic peptide BAA658-PR2; test: as above
[14] = molecular target: T11, recombinant PspA-TIGR4 with C-terminal His-tag (Streptococcus pneumoniae strain TIGR4); test: SPR, Biacore 3000, PspA immobilized on CM5 chip, antibody as analyte, bivalent binding model (KD1 = kd1/ka1)
T11 construct: Made in E. coli BL21(DE3), purified on Ni Sepharose; immobilized on a CM5 chip in the SPR assay; also called pelB-PspA(TIGR4)-His
T11 chain: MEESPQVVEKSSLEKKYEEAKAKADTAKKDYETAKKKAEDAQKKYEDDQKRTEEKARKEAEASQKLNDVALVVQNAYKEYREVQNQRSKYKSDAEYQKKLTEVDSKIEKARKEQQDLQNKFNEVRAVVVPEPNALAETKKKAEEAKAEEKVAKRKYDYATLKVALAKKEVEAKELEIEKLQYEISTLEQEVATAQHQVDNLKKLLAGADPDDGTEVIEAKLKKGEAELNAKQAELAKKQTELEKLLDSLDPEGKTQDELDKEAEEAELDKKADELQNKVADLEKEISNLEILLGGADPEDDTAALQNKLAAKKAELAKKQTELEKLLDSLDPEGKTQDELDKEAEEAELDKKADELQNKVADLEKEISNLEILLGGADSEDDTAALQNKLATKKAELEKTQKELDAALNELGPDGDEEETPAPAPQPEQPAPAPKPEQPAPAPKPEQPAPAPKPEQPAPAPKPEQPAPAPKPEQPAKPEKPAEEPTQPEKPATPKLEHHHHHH

[15] = molecular target: T12, recombinant PspA-D39 with C-terminal His-tag (Streptococcus pneumoniae strain D39); test: as above
T12 construct: Made in E. coli BL21(DE3), purified on Ni Sepharose; immobilized on a CM5 chip in the SPR assay; also called pelB-PspA(D39)-His; PspA-6xHis (D39)
T12 chain: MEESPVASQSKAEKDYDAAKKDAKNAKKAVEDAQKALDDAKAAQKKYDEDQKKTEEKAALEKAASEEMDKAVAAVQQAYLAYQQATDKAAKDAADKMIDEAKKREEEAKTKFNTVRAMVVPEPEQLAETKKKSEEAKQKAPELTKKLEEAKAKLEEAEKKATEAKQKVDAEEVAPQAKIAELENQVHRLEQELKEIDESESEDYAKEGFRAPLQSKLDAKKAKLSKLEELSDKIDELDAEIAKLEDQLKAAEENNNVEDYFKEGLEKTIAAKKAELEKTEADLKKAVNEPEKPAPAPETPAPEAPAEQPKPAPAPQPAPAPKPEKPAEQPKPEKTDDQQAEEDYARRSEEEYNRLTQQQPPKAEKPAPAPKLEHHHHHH

[16] = molecular target: recombinant PspA-BAA658 (Streptococcus pneumoniae strain BAA-658); test: as above
[17] = molecular target: T2, synthetic peptide BAA658-PR4; test: ELISA, biotinylated peptide on NeutrAvidin plates, antibody at 1 μg/mL
[18] = molecular target: T3, synthetic peptide BAA658-PR3; test: as above

Binder | binding result [1] | binding result [2] | binding result [3] | binding result [4] | binding result [5] | binding result [6] | binding result [7] | binding result [8] | binding result [9] | binding result [10] | binding result [11] | binding result [12] | binding result [13] | Kd [14] | Kd [15] | Kd [16] | binding result [17] | binding result [18]
B1 | no binding (tested: 1 μg/mL) | no binding (tested: 1 μg/mL) | no binding (tested: 1 μg/mL) | no binding (tested: 1 μg/mL) | no binding (tested: 1 μg/mL) | binds | binds | no binding (tested: 1 μg/mL) | no binding (tested: 1 μg/mL) | no binding (tested: 1 μg/mL) | – | – | – | – | – | – | – | –
B2 | no binding (tested: 1 μg/mL) | no binding (tested: 1 μg/mL) | no binding (tested: 1 μg/mL) | no binding (tested: 1 μg/mL) | no binding (tested: 1 μg/mL) | – | – | no binding (tested: 1 μg/mL) | no binding (tested: 1 μg/mL) | no binding (tested: 1 μg/mL) | – | – | – | – | – | – | – | –
B3 | – | – | – | – | – | binds | binds | – | – | – | binds | binds | binds | – | – | – | – | –
B4 | – | – | – | – | – | binds | binds | – | – | – | binds | – | – | < 100 nM | < 100 nM | < 100 nM | binds | binds
